{
  "source": "patent US20100137420",
  "key": {"[1]": {"target": "cathepsin B (from THP-1 cell lysates) (UniProt P07858)"}},
  "data": [
    {"substance": "cathepsin D", "values": [
      {"measurement": "cleavage of recombinant cystatin C", "setting": "recombinant cystatin C", "value": "cathepsin D cleaved cystatin C at four different sites, and yielded a 12.5 kD fragment following cleavage from the C terminal region"},
      {"measurement": "cathepsin B activity (fluorogenic Ac-Arg-Arg-AFC assay)", "setting": "[1]", "value": "Cathepsin D and MMP-2 alone had no effect on cathepsin B activity"}
    ]}
  ]
}
